Source: doi:10.1101/2024.12.09.627393

Key:
[1] = biological target: H3Tetra^ac nucleosome (UniProt P68431); test: AlphaScreen or HTRF; dCypher: GST-CECR2-BRD titrated against PTM-defined nucleosomes (10 nM); glutathione Acceptor and streptavidin Donor beads; 20 mM Tris pH 7.5, 250 mM NaCl, 0.01% NP-40, 0.01% BSA, 1 mM DTT; room temperature; relative EC50 (EC50^rel)
[2] = biological target: H4Tetra^ac nucleosome (UniProt P68431); test: as above

GST-CECR2-BRD (GST tag retained, for dCypher assays), sequence (Q9BXF3 424-538): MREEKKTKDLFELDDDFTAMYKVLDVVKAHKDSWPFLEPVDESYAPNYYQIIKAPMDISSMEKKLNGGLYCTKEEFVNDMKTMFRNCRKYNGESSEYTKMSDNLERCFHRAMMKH

EC50 [1]: 6 nM | EC50 [2]: 9.2 nM
Substance: GST-CECR2-BRD (GST tag retained, for dCypher assays) (from UniProt Q9BXF3-1 424-538) (domain or fragment)
